The text below walks through data of the supplement of paper PMC9112550, “Optimization of the antimicrobial peptide Bac7 by deep mutational scanning” (BMC Biology, 2022).
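Further: peptides expressed intracellularly from a pBAD plasmid library in pooled LB shake-flask culture, induced with 0.3% L-arabinose, DNA abundance read by NGS, three biological replicates, DESeq2 with apeglm shrinkage.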

For this data set, the system named is Escherichia coli TOP10. The experiment in a line: shrunken log2 fold change of peptide-encoding DNA abundance (4.5 h post-induction vs induction); higher = less antimicrobial activity (less host growth inhibition). Conditions: time post-induction: 4.5 h; library: site-saturation at positions 5, 18, 19, 20.
On to RRIRFRPPRLPRPRPRPIDRPRP, for which the “shrunken log2 fold change” value is -0.0144.

On to RRIRLRPPRLPRPRPRPFPDPRP, for which the “shrunken log2 fold change” value was -0.0465.

As to RRIRPRPPRLPRPRPRPGDYPRP, the “shrunken log2 fold change” value was -0.0215.

As for RRIRDRPPRLPRPRPRPYEAPRP, the “shrunken log2 fold change” value is -0.108.

Regarding RRIRVRPPRLPRPRPRPVLGPRP, the “shrunken log2 fold change” value came out at 0.299.

Turning to RRIRDRPPRLPRPRPRPTCCPRP, the “shrunken log2 fold change” value is 0.104.

RRIRRRPPRLPRPRPRPGHAPRP: the “shrunken log2 fold change” value came out at 0.398.

As for RRIRMRPPRLPRPRPRPPATPRP, the “shrunken log2 fold change” value stood at 2.56.

Regarding RRIRLRPPRLPRPRPRPNCAPRP, the “shrunken log2 fold change” value amounted to 0.415.

With RRIRIRPPRLPRPRPRPIYWPRP, the “shrunken log2 fold change” value is -0.105.

For the sequence RRIRGRPPRLPRPRPRPMCGPRP, the “shrunken log2 fold change” value was determined as 0.645.

In the case of RRIRIRPPRLPRPRPRPMYWPRP, the “shrunken log2 fold change” value is -0.291.

RRIRLRPPRLPRPRPRPDCPPRP: the “shrunken log2 fold change” value turned out to be 0.0832.

Take RRIRARPPRLPRPRPRPWPMPRP: the “shrunken log2 fold change” value amounted to 0.18.

For RRIRYRPPRLPRPRPRPSGEPRP, the “shrunken log2 fold change” value is -0.187.

Turning to RRIRSRPPRLPRPRPRPPDDPRP, the “shrunken log2 fold change” value was 0.488.

Take RRIRDRPPRLPRPRPRPIYMPRP: the “shrunken log2 fold change” value is -0.106.

In the case of RRIRNRPPRLPRPRPRPGYWPRP, the “shrunken log2 fold change” value was found to be 0.168.

As for RRIRPRPPRLPRPRPRPWTQPRP, the “shrunken log2 fold change” value was -0.0236.

On to RRIRYRPPRLPRPRPRPGFLPRP, for which the “shrunken log2 fold change” value was -0.454.

Consider RRIRTRPPRLPRPRPRPVKLPRP, for which the “shrunken log2 fold change” value is 0.0303.

RRIRGRPPRLPRPRPRPAKLPRP: the “shrunken log2 fold change” value was 0.154.

For RRIRIRPPRLPRPRPRPAVAPRP, the “shrunken log2 fold change” value was determined as 0.0259.

In the case of RRIRFRPPRLPRPRPRPSLVPRP, the “shrunken log2 fold change” value is -0.167.

For RRIRVRPPRLPRPRPRPVYPPRP, the “shrunken log2 fold change” value is -0.389.

Take RRIRTRPPRLPRPRPRPDIDPRP: the “shrunken log2 fold change” value came out at 0.0151.

Consider RRIRGRPPRLPRPRPRPYPQPRP, for which the “shrunken log2 fold change” value stood at 0.12.

Take RRIRRRPPRLPRPRPRPDRGPRP: the “shrunken log2 fold change” value is -0.216.

RRIRTRPPRLPRPRPRPLAQPRP: the “shrunken log2 fold change” value is 0.143.

As to RRIRYRPPRLPRPRPRPPVGPRP, the “shrunken log2 fold change” value stood at 0.0196.

Regarding RRIRIRPPRLPRPRPRPKFEPRP, the “shrunken log2 fold change” value is -0.361.

Consider RRIRCRPPRLPRPRPRPELRPRP, for which the “shrunken log2 fold change” value came to 0.0185.

For the sequence RRIRERPPRLPRPRPRPDRIPRP, the “shrunken log2 fold change” value is -0.311.

Take RRIRTRPPRLPRPRPRPQEVPRP: the “shrunken log2 fold change” value was -0.0102.

Regarding RRIRKRPPRLPRPRPRPQPRPRP, the “shrunken log2 fold change” value is 0.752.

RRIRSRPPRLPRPRPRPSTWPRP: the “shrunken log2 fold change” value was -0.301.

On to RRIRLRPPRLPRPRPRPHDFPRP, for which the “shrunken log2 fold change” value is -0.205.

Turning to RRIRQRPPRLPRPRPRPERDPRP, the “shrunken log2 fold change” value stood at 0.321.

As to RRIRNRPPRLPRPRPRPMKPPRP, the “shrunken log2 fold change” value was -0.00018.

In the case of RRIRKRPPRLPRPRPRPLVHPRP, the “shrunken log2 fold change” value worked out at 0.0415.

On to RRIRERPPRLPRPRPRPQSGPRP, for which the “shrunken log2 fold change” value was determined as 0.00436.

In the case of RRIRYRPPRLPRPRPRPEWKPRP, the “shrunken log2 fold change” value is -0.000687.

As for RRIRCRPPRLPRPRPRPRDVPRP, the “shrunken log2 fold change” value was found to be 0.227.

For the sequence RRIRYRPPRLPRPRPRPGRVPRP, the “shrunken log2 fold change” value is -0.106.

Regarding RRIRDRPPRLPRPRPRPPQVPRP, the “shrunken log2 fold change” value is 0.272.

For the sequence RRIRMRPPRLPRPRPRPDDFPRP, the “shrunken log2 fold change” value turned out to be 0.938.

Take RRIRDRPPRLPRPRPRPNKTPRP: the “shrunken log2 fold change” value was -0.132.

Take RRIRLRPPRLPRPRPRPRSDPRP: the “shrunken log2 fold change” value stood at 0.126.

With RRIRPRPPRLPRPRPRPIAVPRP, the “shrunken log2 fold change” value is -0.0448.

Consider RRIRARPPRLPRPRPRPFRVPRP, for which the “shrunken log2 fold change” value was -0.19.

Turning to RRIRQRPPRLPRPRPRPKTVPRP, the “shrunken log2 fold change” value was -0.093.

In the case of RRIRPRPPRLPRPRPRPLIIPRP, the “shrunken log2 fold change” value is -0.605.

Turning to RRIRSRPPRLPRPRPRPWQHPRP, the “shrunken log2 fold change” value came out at 0.14.

With RRIRPRPPRLPRPRPRPEVVPRP, the “shrunken log2 fold change” value turned out to be 0.0581.

Consider RRIRARPPRLPRPRPRPWHPPRP, for which the “shrunken log2 fold change” value is -0.00894.

Take RRIRRRPPRLPRPRPRPSEQPRP: the “shrunken log2 fold change” value was found to be 0.262.

For RRIRIRPPRLPRPRPRPHSRPRP, the “shrunken log2 fold change” value was -0.197.

For the sequence RRIRVRPPRLPRPRPRPHQNPRP, the “shrunken log2 fold change” value is -0.296.

In the case of RRIRERPPRLPRPRPRPLALPRP, the “shrunken log2 fold change” value is -0.265.

In the case of RRIRVRPPRLPRPRPRPPKIPRP, the “shrunken log2 fold change” value was -0.05.

With RRIRQRPPRLPRPRPRPWAWPRP, the “shrunken log2 fold change” value is -0.0707.

On to RRIRIRPPRLPRPRPRPCKYPRP, for which the “shrunken log2 fold change” value is -1.03.

For the sequence RRIRLRPPRLPRPRPRPCIMPRP, the “shrunken log2 fold change” value is -0.0711.

In the case of RRIRFRPPRLPRPRPRPLWVPRP, the “shrunken log2 fold change” value was found to be 0.0127.

For RRIRMRPPRLPRPRPRPHLVPRP, the “shrunken log2 fold change” value is -0.0163.

Regarding RRIRDRPPRLPRPRPRPFNCPRP, the “shrunken log2 fold change” value turned out to be 0.0412.

Take RRIRSRPPRLPRPRPRPIRHPRP: the “shrunken log2 fold change” value was -0.0283.

For RRIRIRPPRLPRPRPRPRKRPRP, the “shrunken log2 fold change” value amounted to 0.178.

Regarding RRIRRRPPRLPRPRPRPKRAPRP, the “shrunken log2 fold change” value came to 0.52.

Consider RRIRHRPPRLPRPRPRPSQEPRP, for which the “shrunken log2 fold change” value was -0.27.

In the case of RRIRPRPPRLPRPRPRPASKPRP, the “shrunken log2 fold change” value came out at 0.022.

Take RRIRMRPPRLPRPRPRPTVYPRP: the “shrunken log2 fold change” value was -0.0666.

On to RRIRDRPPRLPRPRPRPYVRPRP, for which the “shrunken log2 fold change” value is -0.402.

For RRIRPRPPRLPRPRPRPEFMPRP, the “shrunken log2 fold change” value came to 0.0793.

Regarding RRIRYRPPRLPRPRPRPKTWPRP, the “shrunken log2 fold change” value is -0.132.

Consider RRIRIRPPRLPRPRPRPFSQPRP, for which the “shrunken log2 fold change” value is -0.52.

With RRIRIRPPRLPRPRPRPKACPRP, the “shrunken log2 fold change” value came out at 0.0544.

Consider RRIRKRPPRLPRPRPRPWSHPRP, for which the “shrunken log2 fold change” value was 0.0601.

On to RRIRDRPPRLPRPRPRPLTTPRP, for which the “shrunken log2 fold change” value was determined as 0.135.

In the case of RRIRFRPPRLPRPRPRPKVRPRP, the “shrunken log2 fold change” value was -0.022.

As to RRIRSRPPRLPRPRPRPRPEPRP, the “shrunken log2 fold change” value came out at 0.507.

Turning to RRIRFRPPRLPRPRPRPEVTPRP, the “shrunken log2 fold change” value was -0.0331.

In the case of RRIRYRPPRLPRPRPRPFPKPRP, the “shrunken log2 fold change” value was -0.28.

Consider RRIRNRPPRLPRPRPRPFITPRP, for which the “shrunken log2 fold change” value was -0.783.

On to RRIRKRPPRLPRPRPRPWAWPRP, for which the “shrunken log2 fold change” value was -0.00174.

For the sequence RRIRSRPPRLPRPRPRPNNWPRP, the “shrunken log2 fold change” value is -0.0732.

Consider RRIRFRPPRLPRPRPRPDAVPRP, for which the “shrunken log2 fold change” value was -0.0144.

For RRIRMRPPRLPRPRPRPFSIPRP, the “shrunken log2 fold change” value was -0.11.

As to RRIRMRPPRLPRPRPRPGRWPRP, the “shrunken log2 fold change” value came out at 1.66.

For RRIRGRPPRLPRPRPRPHREPRP, the “shrunken log2 fold change” value worked out at 0.121.

Consider RRIRFRPPRLPRPRPRPNWAPRP, for which the “shrunken log2 fold change” value was 0.00252.
